14 molecules from patent US20030236197A1 (PRAECIS PHARMACEUTICALS, published 2003) can be followed below.

To fix the notation:
B1: PPI-970: TFA • N-isopropyl-(Gaffvl)-NH2 (peptide)
peptide: G[dA][dF][dF][dV][dL]-NH2
modifications: not fully specified (N-terminus); printed as N-isopropyl-(Gly-D-Ala-D-Phe-D-Phe-D-Val-D-Leu)-NH2; also: TFA salt
B2: PPI-1125: 2 TFA • H-lvf-NH-NH-fvl-H (peptide)
peptide: H-[dL]-[dV]-[dF]
modifications: also: dimer: C-termini of two tripeptides joined through hydrazine (-NH-NH-), 2 TFA salt

Square brackets hold non-standard residues; d marks the D form. Ends that are not written are not given here. * marks the point of attachment. dPhe(F5) = N[C@H](Cc1c(F)c(F)c(F)c(F)c1F)C(=O)O; dPhe(4-F) = N[C@H](Cc1ccc(F)cc1)C(=O)O; NHiPr = CC(C)N*

In the first assay the target is T1, Aβ1-40 peptide (monomeric start material of the nucleation assay). As to the kind of experiment: cell-based or functional assay.
Consider H-[dL][dV][dF][dF][dA]-NHiPr (also: TFA salt) [PPI-992: TFA • H-(lvffa)-isopropylamide], for which the “Nucleation assay Δ lag at 1.25 µM compound” value was 1 ratio of lag time to control, the “Nucleation assay Δ lag at 2.5 µM compound” value is 1 ratio of lag time to control and the “Nucleation assay Δ lag at 5 µM compound” value is 3 ratio of lag time to control.

For {N,N‑diethyl}-G[dA][dF][dF][dV][dL]-NH2 (also: TFA salt) [PPI-1005: TFA • N,N-diethyl-(Gaffvl)-NH2], the “Nucleation assay Δ lag at 1.25 µM compound” value is 1 ratio of lag time to control, the “Nucleation assay Δ lag at 2.5 µM compound” value was 3 ratio of lag time to control and the “Nucleation assay Δ lag at 5 µM compound” value is 3 ratio of lag time to control.

Take H-[dL][dV][dF][dF][dA]-NMe2 (also: TFA salt) [PPI-993: TFA • H-(lvffa)-dimethylamide]: the “Nucleation assay Δ lag at 1.25 µM compound” value was 1 ratio of lag time to control, the “Nucleation assay Δ lag at 2.5 µM compound” value is 1 ratio of lag time to control and the “Nucleation assay Δ lag at 5 µM compound” value was 1 ratio of lag time to control.

Consider B1, for which the “Nucleation assay Δ lag at 1.25 µM compound” value is 1 ratio of lag time to control, the “Nucleation assay Δ lag at 2.5 µM compound” value was > 5 ratio of lag time to control and the “Nucleation assay Δ lag at 5 µM compound” value is > 5 ratio of lag time to control.

{N,N‑dimethyl}-[dA][dF][dF][dV][dL]-NH2 (also: TFA salt) [PPI-913: TFA • N,N-dimethyl-(affvl)-NH2]: the “Nucleation assay Δ lag at 1.25 µM compound” value was 1 ratio of lag time to control, the “Nucleation assay Δ lag at 2.5 µM compound” value is 1 ratio of lag time to control and the “Nucleation assay Δ lag at 5 µM compound” value is 1 ratio of lag time to control.

On to {N,N‑diethyl}-[dA][dF][dF][dV][dL]-NH2 (also: TFA salt) [PPI-1006: TFA • N,N-diethyl-(affvl)-NH2], for which the “Nucleation assay Δ lag at 1.25 µM compound” value was 1 ratio of lag time to control, the “Nucleation assay Δ lag at 2.5 µM compound” value was 1 ratio of lag time to control and the “Nucleation assay Δ lag at 5 µM compound” value is 1 ratio of lag time to control.

Regarding {N,N‑dimethyl}-[dL][dV][dF][dF][dL]-NH2 (also: TFA salt) [PPI-1007: TFA • N,N-dimethyl-(lvffl)-NH2], the “Nucleation assay Δ lag at 0.3 µM compound (row marked *: measured at 3, 1 and 0.3 µM)” value is 3 ratio of lag time to control; the “Nucleation assay Δ lag at 0.6 µM compound (row marked #: measured at 2.5, 1.25 and 0.6 µM)” value is 1.5 ratio of lag time to control; the “Nucleation assay Δ lag at 1 µM compound (row marked *: measured at 3, 1 and 0.3 µM)” value is 4 ratio of lag time to control; the “Nucleation assay Δ lag at 1.25 µM compound (row marked #: measured at 2.5, 1.25 and 0.6 µM)” value was 1.5 ratio of lag time to control. Besides, the “Nucleation assay Δ lag at 2.5 µM compound (row marked #: measured at 2.5, 1.25 and 0.6 µM)” value is 1.5 ratio of lag time to control; the “Nucleation assay Δ lag at 3 µM compound (row marked *: measured at 3, 1 and 0.3 µM)” value is 4 ratio of lag time to control.

As for {N,N‑dimethyl}-G[dA][dF][dF][dV][dL]-NH2 (also: TFA salt) [PPI-803: TFA • N,N-dimethyl-(Gaffvl)-NH2], the “Nucleation assay Δ lag at 1.25 µM compound” value is < 1 ratio of lag time to control, the “Nucleation assay Δ lag at 2.5 µM compound” value was < 1 ratio of lag time to control and the “Nucleation assay Δ lag at 5 µM compound” value was < 1 ratio of lag time to control.

For the molecule {N‑methyl}-G[dA][dF][dF][dV][dL]-NH2 (also: TFA salt) [PPI-968: TFA • N-methyl-(Gaffvl)-NH2], the “Nucleation assay Δ lag at 1.25 µM compound” value is 2 ratio of lag time to control, the “Nucleation assay Δ lag at 2.5 µM compound” value is > 5 ratio of lag time to control and the “Nucleation assay Δ lag at 5 µM compound” value is > 5 ratio of lag time to control.

Another assay concerns the target T1, Aβ1-40 peptide (monomeric start …). As to the kind of experiment: cell-based or functional assay. This is another data set of the same source.
With {N‑methyl}-[dL][dV][dF][dF][dL]-NH2 (also: TFA salt) [PPI-1019: TFA • N-methyl-(lvffl)-NH2], the “Nucleation assay data (Δ lag) at 0.6 µM compound (row marked *: measured at 2.5, 1.25 and 0.6 µM)” value was 2 ratio of lag time to control; the “Nucleation assay data (Δ lag) at 1.25 µM compound (row marked *: measured at 2.5, 1.25 and 0.6 µM)” value was > 2.5 ratio of lag time to control; the “Nucleation assay data (Δ lag) at 2.5 µM compound (row marked *: measured at 2.5, 1.25 and 0.6 µM)” value is > 2.5 ratio of lag time to control.

Take H-[dL][dF][dPhe(4-F)][dV][dL]-NH2 (also: TFA salt) [PPI-1319: TFA • H-(lf-[p-F]f-vl)-NH2]: the “Nucleation assay data (Δ lag) at 0.3 µM compound” value was 1 ratio of lag time to control, the “Nucleation assay data (Δ lag) at 1 µM compound” value was > 5 ratio of lag time to control and the “Nucleation assay data (Δ lag) at 3 µM compound” value was > 5 ratio of lag time to control.

Regarding H-[dL][dF][dK][dV][dL]-NH2 (also: 2 TFA salt) [PPI-1321: 2TFA • H-(lfkvl)-NH2], the “Nucleation assay data (Δ lag) at 0.3 µM compound” value was < 1 ratio of lag time to control, the “Nucleation assay data (Δ lag) at 1 µM compound” value was < 1 ratio of lag time to control and the “Nucleation assay data (Δ lag) at 3 µM compound” value was < 1 ratio of lag time to control.

On to H-[dL][dF][dPhe(F5)][dV][dL]-NH2 (also: TFA salt) [PPI-1320: TFA • H-(lf-[F5]f-vl)-NH2], for which the “Nucleation assay data (Δ lag) at 0.3 µM compound” value is 1 ratio of lag time to control, the “Nucleation assay data (Δ lag) at 1 µM compound” value was 3 ratio of lag time to control and the “Nucleation assay data (Δ lag) at 3 µM compound” value was > 5 ratio of lag time to control.

For the molecule B2, the “Nucleation assay data (Δ lag) at 0.6 µM compound (row marked *: measured at 2.5, 1.25 and 0.6 µM)” value is 2 ratio of lag time to control; the “Nucleation assay data (Δ lag) at 1.25 µM compound (row marked *: measured at 2.5, 1.25 and 0.6 µM)” value was > 2.5 ratio of lag time to control; the “Nucleation assay data (Δ lag) at 2.5 µM compound (row marked *: measured at 2.5, 1.25 and 0.6 µM)” value is > 2.5 ratio of lag time to control.
